In PMC12499889, “Voltage-matrix nanopore profiling for the discrimination of protein mixtures”:

Biological target: carcinoembryonic antigen (CEA) (UniProt P06731 35-685)
Assay: solid-state nanopore (single-molecule); 3.6 M LiCl; 10 nM CEA, 1 uM aptamer; shift in signal distribution; 3.6 M LiCl, 10 mM HEPES-KOH pH 8.0; 1 uM aptamer incubated with 10 nM CEA for 1 h; temperature not stated; nanopore at -50 to -300 mV
Settings: protein: commercial

carcinoembryonic antigen (CEA), sequence (P06731 35-685): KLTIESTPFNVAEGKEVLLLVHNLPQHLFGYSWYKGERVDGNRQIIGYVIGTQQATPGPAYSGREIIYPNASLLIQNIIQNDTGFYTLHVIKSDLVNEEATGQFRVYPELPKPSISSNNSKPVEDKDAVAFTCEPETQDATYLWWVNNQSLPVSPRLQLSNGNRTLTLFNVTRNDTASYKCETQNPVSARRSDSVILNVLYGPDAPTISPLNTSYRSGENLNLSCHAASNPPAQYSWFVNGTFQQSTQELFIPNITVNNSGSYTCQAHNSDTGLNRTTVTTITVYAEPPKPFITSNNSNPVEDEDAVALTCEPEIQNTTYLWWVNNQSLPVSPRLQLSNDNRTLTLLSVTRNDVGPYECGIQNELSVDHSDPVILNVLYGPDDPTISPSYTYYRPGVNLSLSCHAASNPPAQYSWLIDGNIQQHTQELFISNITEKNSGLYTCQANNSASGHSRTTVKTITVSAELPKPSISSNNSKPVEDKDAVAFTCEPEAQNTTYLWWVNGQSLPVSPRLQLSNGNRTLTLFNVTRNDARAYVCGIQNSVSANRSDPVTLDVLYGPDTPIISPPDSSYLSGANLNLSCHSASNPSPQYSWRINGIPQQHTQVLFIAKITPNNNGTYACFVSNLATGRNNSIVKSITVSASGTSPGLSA

B1: CEA DNA aptamer (ssDNA)
DNA: TCGCGCGAGTCGTCTGGGAGCTACGTTTAGCGAGTCCGACGCTCGGTGCCTCTTCGGGAGGACGATGCGG
B1: binds.
